The record followed here is patent publication US20200024330A1.

What all share (test): cell-based or functional assay
For experiment [1], the target named is HIV-1 Env of isolate MGRM-G-024 (clade G pseudovirus) (HIV-1).
In experiment [2] the target is HIV-1 MGRM-A-001 envelope glycoprotein (Env) (HIV-1).
The target of experiment [3] is HIV-1 Env of isolate MGRM-D-024 (clade D) (HIV-1).
In experiment [4] the target is HIV-1 MGRM-F1-023 Env (pseudovirus) (HIV-1).
Experiment [5] addresses HIV-1 Env of isolate MGRM-D-012 (clade D) (HIV-1).
The target in experiment [6] is HIV-1 94UG114 envelope glycoprotein (Env) on pseudovirus (HIV-1).
Experiment [7] has as its target HIV-1 MGRM-F1-017 Env (pseudovirus) (HIV-1).
The target in experiment [8] is HIV-1 Env of isolate MGRM-D-029 (clade D) (HIV-1).
The target of experiment [9] is HIV-1 Env of isolate MGRM-D-014 (clade D) (HIV-1).
In experiment [10] the target is HIV-1 Env of isolate MGRM-D-020 (clade D) (HIV-1).
The target in experiment [11] is HIV-1 Env of isolate SF162 (HIV-1) (UniProt P19549).
Experiment [12] concerns the target HIV-1 CMU02 envelope protein (Env) on pseudovirus (HIV-1).
Experiment [13] addresses HIV-1 MGRM-C-022 Env (HIV-1).
Experiment [14] deals with HIV-1 Env of isolate MGRM-D-026 (clade D) (HIV-1).
Experiment [15] concerns the target HIV-1 Env of isolate 92TH021 (HIV-1).
The target in experiment [16] is HIV-1 Env of isolate 92UG001 (HIV-1).
Experiment [17] has as its target HIV-1 Env of isolate MGRM-D-024 (subtype D), on pseudovirus (HIV-1).
The target of experiment [18] is HIV-1 JR-CSF Env E466A (HIV-1 (isolate JR-CSF)) (UniProt P20871).
The target in experiment [19] is HIV-1 Env of isolate MGRM-A-012 (clade A), on pseudovirus (HIV-1).
For experiment [20], the target named is HIV-1 Env of isolate MGRM-AG-009 (CRF_AG), on pseudovirus (HIV-1).
For experiment [21], the target named is HIV-1 Env of isolate MGRM-G-028 (HIV-1).
Experiment [22] addresses HIV-1 Env of isolate CMU02 (CRF01_AE), on pseudovirus (HIV-1).
Experiment [23] deals with HIV-1 Env of isolate MGRM-AG-003 (CRF_AG), on pseudovirus (HIV-1).
The target of experiment [24] is HIV-1 Env of isolate MGRM-F1-021 (subtype F), on pseudovirus (HIV-1).
Experiment [25] concerns the target HIV-1 Env of isolate MGRM-Chronic-B-003 (HIV-1).
Experiment [26] has as its target HIV-1 Env of isolate MGRM-AG-012 (CRF_AG), on pseudovirus (HIV-1).
Experiment [27] concerns the target HIV-1 JR-CSF Env D167A (HIV-1 (isolate JR-CSF)) (UniProt P20871).
Experiment [28] has as its target HIV-1 Env of isolate MGRM-Chronic-B-002 (HIV-1).
The target of experiment [29] is HIV-1 Env of isolate MGRM-D-014 (HIV-1).
The target of experiment [30] is HIV-1 JR-CSF Env Y177A (HIV-1 (isolate JR-CSF)) (UniProt P20871).

5345_I01 (PGT-137) (antibody), sequence (VH): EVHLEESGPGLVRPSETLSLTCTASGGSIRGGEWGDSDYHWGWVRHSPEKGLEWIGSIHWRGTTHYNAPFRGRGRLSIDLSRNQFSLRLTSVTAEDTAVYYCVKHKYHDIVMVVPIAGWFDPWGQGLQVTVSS
5345_I01 (PGT-137) (antibody), sequence (VL): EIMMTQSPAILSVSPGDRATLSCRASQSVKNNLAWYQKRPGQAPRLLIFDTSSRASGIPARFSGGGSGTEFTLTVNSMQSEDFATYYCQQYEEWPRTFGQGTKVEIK
5329_C19 (PGT-136) (antibody), sequence (VH): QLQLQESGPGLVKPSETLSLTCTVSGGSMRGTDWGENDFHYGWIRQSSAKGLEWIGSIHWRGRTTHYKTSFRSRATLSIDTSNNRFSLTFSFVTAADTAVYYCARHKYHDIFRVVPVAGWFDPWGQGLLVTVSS
5329_C19 (PGT-136) (antibody), sequence (VL): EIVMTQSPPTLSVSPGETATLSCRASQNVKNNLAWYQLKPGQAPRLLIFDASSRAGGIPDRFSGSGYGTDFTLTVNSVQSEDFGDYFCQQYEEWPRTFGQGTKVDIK

Broadly, the IC50 is the concentration needed to halve the response being measured. For 2F5 (antibody), the IC50 (µg/ml), pseudovirus neutralization was 1.07 µg/mL in experiment [1]; greater than 50 µg/mL in [2]; greater than 50 µg/mL in experiment [3]; 1.78 µg/mL in experiment [4]; 1.7 µg/mL in [5]; greater than 50 µg/mL in experiment [6]. The IC50 (µg/ml), pseudovirus neutralization in experiment [7] was greater than 50 µg/mL; in experiment [8], greater than 50 µg/mL; in experiment [9], 2.22 µg/mL; in [10], greater than 50 µg/mL; in experiment [11], 2.52 µg/mL; in experiment [14], 4.37 µg/mL. This substance also came in with a neutralization IC50 in experiment [12] of 0.38 µg/mL. The IC50 in experiment [13] is greater than 50 µg/mL.
With 2G12 (antibody), the IC50 (µg/ml), pseudovirus neutralization in [1] was greater than 50 µg/mL; in experiment [2] it was greater than 50 µg/mL; in experiment [15], greater than 50 µg/mL; in experiment [3], greater than 50 µg/mL; in experiment [4], 9.23 µg/mL; in experiment [5], greater than 50 µg/mL. The IC50 (µg/ml), pseudovirus neutralization was 13.9 µg/mL in [6]; greater than 50 µg/mL in experiment [7]; greater than 50 µg/mL in [8]; greater than 50 µg/mL in experiment [9]; greater than 50 µg/mL in experiment [10]; 1.67 µg/mL in experiment [11]. In [14], the IC50 (µg/ml), pseudovirus neutralization was greater than 50 µg/mL. Besides, the neutralization IC50 in experiment [12] is greater than 50 µg/mL. Moreover, the IC50 in [13] was greater than 50 µg/mL.
Take 4E10 (antibody): the IC50 (µg/ml), pseudovirus neutralization in [1] turned out to be 1.57 µg/mL; in [2] it was 15.1 µg/mL; in experiment [15] it was 1.17 µg/mL; in experiment [3] it was 3.6 µg/mL; in [4], 0.44 µg/mL; in experiment [5] it was 1.13 µg/mL. For the same substance, the IC50 (µg/ml), pseudovirus neutralization is 9.72 µg/mL in experiment [6]; 4.92 µg/mL in experiment [7]; 5.3 µg/mL in experiment [8]; 3.24 µg/mL in experiment [9]; greater than 50 µg/mL in [10]; 4.28 µg/mL in [11]. In experiment [14], this substance showed an IC50 (µg/ml), pseudovirus neutralization of 2.95 µg/mL. In experiment [12], this substance registered a neutralization IC50 of 0.59 µg/mL. For the same substance, in [13], the IC50 was found to be 5.71 µg/mL.
For the substance 5114_A19 (PGT-128) (antibody), the IC50 in [16] was greater than 50 µg/mL; in [25] it was 0.007 µg/mL; in experiment [28] it was 0.036 µg/mL; in [29], 0.013 µg/mL. Besides, the IC50, pseudovirus neutralization is 0.067 µg/mL in [17], 0.008 µg/mL in experiment [21] and greater than 50 µg/mL in experiment [24]. Further, the Fold IC50 increase relative to wild-type was found to be 0.6 fold in experiment [18], 0.3 fold in experiment [27] and 1.4 fold in [30]. In addition, the IC50, single-round pseudovirus neutralization in [19] is 0.025 µg/mL; in [20], 0.021 µg/mL; in [22], greater than 50 µg/mL; in experiment [23], 34.8 µg/mL; in [26] it was greater than 50 µg/mL.
Consider 5136_H01 (PGT-131) (antibody), for which the half-inhibitory concentration (IC50) in experiment [16] is greater than 50 µg/mL; in experiment [25], greater than 50 µg/mL; in experiment [28], greater than 50 µg/mL; in experiment [29], 0.516 µg/mL. In addition, the IC50, pseudovirus neutralization in experiment [17] was greater than 50 µg/mL; in experiment [21], 0.466 µg/mL; in experiment [24], greater than 50 µg/mL. Further, the Fold IC50 increase relative to wild-type in [18] is 1.7 fold; in experiment [27], 1.2 fold; in experiment [30] it was 5.3 fold. For the same substance, the IC50, single-round pseudovirus neutralization in experiment [19] was greater than 50 µg/mL; in [20] it was greater than 50 µg/mL; in experiment [22] it was greater than 50 µg/mL; in experiment [23], 2.92 µg/mL; in [26] it was greater than 50 µg/mL.
Consider 5147_N06 (PGT-130) (antibody), for which the IC50 in experiment [16] is greater than 50 µg/mL; in experiment [25], greater than 50 µg/mL; in [28], greater than 50 µg/mL; in experiment [29], 0.061 µg/mL. The IC50, pseudovirus neutralization was greater than 50 µg/mL in [17], 0.074 µg/mL in experiment [21] and greater than 50 µg/mL in experiment [24]. The Fold IC50 increase relative to wild-type came to 1.7 fold in [18], 1.2 fold in [27] and 3.6 fold in experiment [30]. The IC50, single-round pseudovirus neutralization was greater than 50 µg/mL in experiment [19]; 9.46 µg/mL in experiment [20]; greater than 50 µg/mL in [22]; 0.041 µg/mL in [23]; greater than 50 µg/mL in experiment [26].
Turning to 5329_C19 (PGT-136) (antibody), the half-inhibitory concentration (IC50) in [16], in [25], in [28] and in [29] was greater than 50 µg/mL throughout. For the same substance, the IC50, pseudovirus neutralization in [17], in experiment [21] and in experiment [24] was greater than 50 µg/mL in each case. The IC50, single-round pseudovirus neutralization in experiment [19], in experiment [20], in experiment [22], in [23] and in experiment [26] was greater than 50 µg/mL throughout.
As for 5343_B08 (PGT-135) (antibody), the IC50 in experiment [16] was greater than 50 µg/mL; in experiment [25], greater than 50 µg/mL; in experiment [28] it was greater than 50 µg/mL; in [29], 2.21 µg/mL. The IC50, pseudovirus neutralization in experiment [17] is greater than 50 µg/mL; in experiment [21], greater than 50 µg/mL; in experiment [24] it was 0.065 µg/mL. Moreover, the Fold IC50 increase relative to wild-type in experiment [18] worked out at 0.5 fold; in experiment [27], 0.7 fold; in experiment [30], 0.3 fold. Also, the IC50, single-round pseudovirus neutralization in experiment [19] is greater than 50 µg/mL; in experiment [20], greater than 50 µg/mL; in experiment [22], greater than 50 µg/mL; in [23], greater than 50 µg/mL; in experiment [26], 41.9 µg/mL.
On to 5345_I01 (PGT-137) (antibody), for which the IC50 in experiment [16], in experiment [25], in experiment [28] and in [29] was greater than 50 µg/mL in each case. The IC50, pseudovirus neutralization in experiment [17], in [21] and in [24] was greater than 50 µg/mL throughout. In addition, the IC50, single-round pseudovirus neutralization in [19], in experiment [20], in experiment [22], in experiment [23] and in experiment [26] was greater than 50 µg/mL throughout.
Consider b12 (antibody), for which the IC50 (µg/ml), pseudovirus neutralization in [1] is 2.38 µg/mL; in [2] it was greater than 50 µg/mL; in experiment [3], 5.92 µg/mL; in experiment [4], greater than 50 µg/mL; in [5] it was 0.13 µg/mL; in experiment [6], greater than 50 µg/mL. The IC50 (µg/ml), pseudovirus neutralization in experiment [7] is greater than 50 µg/mL; in experiment [8], greater than 50 µg/mL; in [9], greater than 50 µg/mL; in experiment [10], greater than 50 µg/mL; in [11], 0.02 µg/mL; in [14] it was 1.55 µg/mL. This substance showed a neutralization IC50 in experiment [12] of 4.25 µg/mL. Further, in experiment [13], the concentration for half-maximal inhibition (IC50) was greater than 50 µg/mL.
